Target: SP-Dis-PyCter (Dis-PyCter carrying an amino terminal ER-translocation signal from D. discoideum PsA) (UniProt P02886)
Sequence (P02886 other isoform, or with tags, fused parts or gaps): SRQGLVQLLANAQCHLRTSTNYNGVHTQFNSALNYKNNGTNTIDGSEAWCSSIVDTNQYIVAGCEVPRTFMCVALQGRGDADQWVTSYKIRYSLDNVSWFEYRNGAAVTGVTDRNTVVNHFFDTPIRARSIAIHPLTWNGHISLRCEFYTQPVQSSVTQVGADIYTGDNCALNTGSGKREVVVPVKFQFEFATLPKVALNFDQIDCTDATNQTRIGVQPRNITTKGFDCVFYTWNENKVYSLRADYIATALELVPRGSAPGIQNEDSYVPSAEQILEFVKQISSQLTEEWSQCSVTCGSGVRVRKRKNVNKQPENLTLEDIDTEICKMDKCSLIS

Q: Which “size of the recombinant protein on Western blot after incubation with increasing thrombin (units/ml)” value does the source give for human thrombin here?
A: the size of the recombinant protein decreased with increasing thrombin concentrations

From patent US6482607
